Source: PMC8849274 (Oncotarget, 2022)

What was measured:
Format in all cases: in vivo
[1] = Biodistribution in mice bearing CaSki xenografts; conditions: female, athymic nude, mouse, iv, total radioactivity; for tissue uptake at 1 h: 1 h p.i.; for tissue uptake at 24 h: 24 h p.i.
Description: (§1) Animals were supplied by Charles River Laboratories (Wilmington, MA, USA), and were handled in compliance with the Guidelines for Care and Use of Research Animals established by the Division of Comparative Medicine and the Animal Studies Committee of Washington University School of Medicine under protocol #20–0214. Female athymic nude mice were inoculated on the right flank with 10 × 10^6 CaSki or 5 × 10^6 BxPC-3 cells. Tumors were allowed to grow until they approached approximately 100 mm^3 in volume. Radiolabeled peptides were diluted in saline to a dose of 0.37 MBq (10 μCi) per 100 μl. […] For blocking experiments, non-PEGylated peptide (100 μg in 100 μL saline) was injected ten minutes before radiotracer. Blood, lung, liver, spleen, kidney, muscle, heart, bone, and tumor were harvested. The amount of radioactivity in each organ was determined by gamma counting, and the percent injected dose per gram of tissue (% ID/g) was calculated.

[2] = Small animal PET/CT imaging, BxPC-3 tumors; conditions: female, mouse, tumor (BxPC-3 xenograft), iv, total radioactivity, athymic nude mice bearing BxPC-3 tumors, 3.7 MBq i.v., without blocking, n = 3, read-out: SUVmax of tumors
Procedure: BxPC-3 cells (5 × 10^6) were inoculated in the right shoulder of female athymic nude mice 3–4 weeks before PET imaging sessions. All the experiments involving animals followed the Guidelines for Care and Use of Research Animals established by the Division of Comparative Medicine and the Animal Studies Committee of Washington University School of Medicine under protocol #20–0214. […] Mice were imaged with CT followed by static PET scans at 1, 4, and 24 h after tracer administration on an Inveon small animal PET/CT scanner (Siemens Medical Solutions, Malvern, PA, USA). Static images were collected for 20 min and reconstructed with the maximum a posteriori (MAP) reconstruction algorithm using the Inveon Reseach Workstation image display software (Siemens). Regions of interest (ROI) were selected based on co-registered anatomical CT images, and the associated radioactivity was measured using the Inveon software. The maximum standard uptake value (SUV) was calculated as the highest regional radioactivity concentration (nCi/cc) × animal weight (g)/decay-corrected amount of injected dose (nCi).

[3] = Biodistribution in mice bearing BxPC-3 xenografts; conditions: female, athymic nude, mouse, iv, total radioactivity, BxPC-3 tumor-bearing mice; for tissue uptake at 1 h: 1 h p.i.; for tissue uptake at 24 h: 24 h p.i.
Description: as §1

SMILES: CC(C)C[C@H](NC(=O)[C@H](CC(=O)O)NC(=O)CNC(=O)[C@H](CCCNC(=N)N)NC(=O)[C@H](CC(C)C)NC(=O)[C@H](CC(N)=O)NC(=O)[C@@H]1CCCN1C(=O)[C@@H](NC(=O)[C@H](C)NC(=O)[C@H](CC(N)=O)NC(=O)CCOCCOCCOCCOCCOCCOCCOCCOCCOCCOCCOCCOCCOCCOCCOCCOCCOCCOCCOCCOCCOCCOCCOCCOCCOCCOCCOCCOCCNC(=O)CN1CCN(CC(=O)O)Cc2cccc(n2)CN(CC(=O)O)CC1)C(C)C)C(=O)N[C@@H](CCC(N)=O)C(=O)N[C@H](C(=O)N[C@@H](CC(C)C)C(=O)N[C@@H](C)C(=O)N[C@@H](CCC(N)=O)C(=O)N[C@@H](CCCCN)C(=O)N[C@H](C(=O)N[C@@H](C)C(=O)N[C@@H](CCCNC(=N)N)C(=O)N[C@H](C(=O)NCCOCCOCCOCCOCCOCCOCCOCCOCCOCCOCCOCCOCCOCCOCCOCCOCCOCCOCCOCCOCCOCCOCCOCCOCCOCCOCCOCCOCCC(N)=O)[C@@H](C)O)C(C)C)C(C)C [[^64Cu]Cu-PCTA-(PEG28)2-A20FMDV2, metal not drawn]
- tissue uptake at 1 h ([1]; blood, CaSki tumor-bearing mice, 0.37 MBq i.v., gamma counting, mean, n = 4, read-out: Uptake in Blood): 0.54 %ID/g
- tissue uptake at 24 h ([1]; blood, CaSki tumor-bearing mice, 0.37 MBq i.v., read-out: Radioactivity remaining in the blood): 0.53 ± 0.1 %ID/g
- tissue uptake at 1 h ([1]; blood, CaSki tumor-bearing mice, non-PEGylated A20FMDV2 100 μg injected 10 min before radiotracer, read-out: Uptake in Blood, 1 h Block): 0.76 %ID/g
- tissue uptake at 1 h ([1]; bone, CaSki tumor-bearing mice, 0.37 MBq i.v., gamma counting, mean, n = 4, read-out: Uptake in Bone): 0.54 %ID/g
- tissue uptake at 1 h ([1]; bone, CaSki tumor-bearing mice, non-PEGylated A20FMDV2 100 μg injected 10 min before radiotracer, read-out: Uptake in Bone, 1 h Block): 0.39 %ID/g
- tissue uptake at 1 h ([1]; heart, CaSki tumor-bearing mice, 0.37 MBq i.v., gamma counting, mean, n = 4, read-out: Uptake in Heart): 2.46 %ID/g
- tissue uptake at 1 h ([1]; heart, CaSki tumor-bearing mice, non-PEGylated A20FMDV2 100 μg injected 10 min before radiotracer, read-out: Uptake in Heart, 1 h Block): 0.55 %ID/g
- tissue uptake at 1 h ([1]; kidney, CaSki tumor-bearing mice, 0.37 MBq i.v., gamma counting, mean, n = 4, read-out: Uptake in Kidney): 114 ± 38.3 %ID/g
- tissue uptake at 24 h ([1]; kidney, CaSki tumor-bearing mice, 0.37 MBq i.v., read-out: Uptake in Kidney): 24.4 ± 6.54 %ID/g
- tissue uptake at 1 h ([1]; kidney, CaSki tumor-bearing mice, non-PEGylated A20FMDV2 100 μg injected 10 min before radiotracer, read-out: Uptake in Kidney, 1 h Block): 43.6 %ID/g
- tissue uptake at 1 h ([1]; liver, CaSki tumor-bearing mice, 0.37 MBq i.v., gamma counting, mean, n = 4, read-out: Uptake in Liver): 6.81 %ID/g
- tissue uptake at 1 h ([1]; liver, CaSki tumor-bearing mice, non-PEGylated A20FMDV2 100 μg injected 10 min before radiotracer, read-out: Uptake in Liver, 1 h Block): 3.04 %ID/g
- tissue uptake at 1 h ([1]; lung, CaSki tumor-bearing mice, 0.37 MBq i.v., gamma counting, mean, n = 4, read-out: Uptake in Lung): 3.76 %ID/g
- tissue uptake at 1 h ([1]; lung, CaSki tumor-bearing mice, non-PEGylated A20FMDV2 100 μg injected 10 min before radiotracer, read-out: Uptake in Lung, 1 h Block): 1.43 %ID/g
- tissue uptake at 1 h ([1]; muscle, CaSki tumor-bearing mice, 0.37 MBq i.v., gamma counting, mean, n = 4, read-out: Uptake in Muscle): 1.23 %ID/g
- tissue uptake at 1 h ([1]; muscle, CaSki tumor-bearing mice, non-PEGylated A20FMDV2 100 μg injected 10 min before radiotracer, read-out: Uptake in Muscle, 1 h Block): 0.43 %ID/g
- tissue uptake at 1 h ([1]; spleen, CaSki tumor-bearing mice, 0.37 MBq i.v., gamma counting, mean, n = 4, read-out: Uptake in Spleen): 0.63 %ID/g
- tissue uptake at 1 h ([1]; spleen, CaSki tumor-bearing mice, non-PEGylated A20FMDV2 100 μg injected 10 min before radiotracer, read-out: Uptake in Spleen, 1 h Block): 0.54 %ID/g
- tissue uptake at 1 h ([1]; tumor (CaSki xenograft), 0.37 MBq i.v., gamma counting, mean, n = 4, read-out: Tumor Uptake): 1.63 ± 0.53 %ID/g
- tissue uptake at 1 h ([1]; tumor (CaSki xenograft), non-PEGylated A20FMDV2 100 μg injected 10 min before radiotracer, read-out: Tumor uptake, 1 h Block): 0.67 ± 0.26 %ID/g
- SUV at 1 h ([2]; PET at 1 h): 0.46 ± 0.04 SUV
- SUV at 4 h ([2]; PET at 4 h): 0.54 ± 0.05 SUV
- SUV at 24 h ([2]; PET at 24 h): 0.74 ± 0.21 SUV
- tissue uptake at 1 h ([3]; blood, 0.37 MBq i.v., gamma counting, mean, n = 4, read-out: Uptake in Blood): 0.27 %ID/g
- tissue uptake at 1 h ([3]; blood, non-PEGylated A20FMDV2 100 μg injected 10 min before radiotracer, read-out: Uptake in Blood, 1 h Block): 0.27 %ID/g
- tissue uptake at 1 h ([3]; bone, 0.37 MBq i.v., gamma counting, mean, n = 4, read-out: Uptake in Bone): 0.38 %ID/g
- tissue uptake at 1 h ([3]; bone, non-PEGylated A20FMDV2 100 μg injected 10 min before radiotracer, read-out: Uptake in Bone, 1 h Block): 0.66 %ID/g
- tissue uptake at 1 h ([3]; heart, 0.37 MBq i.v., gamma counting, mean, n = 4, read-out: Uptake in Heart): 1.9 %ID/g
- tissue uptake at 1 h ([3]; heart, non-PEGylated A20FMDV2 100 μg injected 10 min before radiotracer, read-out: Uptake in Heart, 1 h Block): 0.27 %ID/g
- tissue uptake at 1 h ([3]; 0.37 MBq i.v., gamma counting, mean, n = 4, read-out: Tumor Uptake): 3.86 ± 0.58 %ID/g
- tissue uptake at 1 h ([3]; kidney, 0.37 MBq i.v., gamma counting, mean, n = 4, read-out: Uptake in Kidney): 105 ± 13.6 %ID/g
- tissue uptake at 24 h ([3]; kidney, 0.37 MBq i.v., read-out: Uptake in Kidney): 28.6 ± 8.45 %ID/g
- tissue uptake at 1 h ([3]; kidney, non-PEGylated A20FMDV2 100 μg injected 10 min before radiotracer, read-out: Uptake in Kidney, 1 h Block): 80.6 %ID/g
- tissue uptake at 1 h ([3]; liver, 0.37 MBq i.v., gamma counting, mean, n = 4, read-out: Uptake in Liver): 1.94 %ID/g
- tissue uptake at 1 h ([3]; liver, non-PEGylated A20FMDV2 100 μg injected 10 min before radiotracer, read-out: Uptake in Liver, 1 h Block): 1.68 %ID/g
- tissue uptake at 1 h ([3]; lung, 0.37 MBq i.v., gamma counting, mean, n = 4, read-out: Uptake in Lung): 2.58 %ID/g
- tissue uptake at 1 h ([3]; lung, non-PEGylated A20FMDV2 100 μg injected 10 min before radiotracer, read-out: Uptake in Lung, 1 h Block): 1.25 %ID/g
- tissue uptake at 1 h ([3]; muscle, 0.37 MBq i.v., gamma counting, mean, n = 4, read-out: Uptake in Muscle): 1.13 %ID/g
- tissue uptake at 1 h ([3]; muscle, non-PEGylated A20FMDV2 100 μg injected 10 min before radiotracer, read-out: Uptake in Muscle, 1 h Block): 0.28 %ID/g
- tissue uptake at 1 h ([3]; spleen, 0.37 MBq i.v., gamma counting, mean, n = 4, read-out: Uptake in Spleen): 0.28 %ID/g
- tissue uptake at 1 h ([3]; spleen, non-PEGylated A20FMDV2 100 μg injected 10 min before radiotracer, read-out: Uptake in Spleen, 1 h Block): 0.24 %ID/g
- tissue uptake at 4 h ([3]; tumor (BxPC-3 xenograft), 0.37 MBq i.v., 4 h p.i.): 3.09 ± 0.77 %ID/g
- tissue uptake at 24 h ([3]; tumor (BxPC-3 xenograft), 0.37 MBq i.v., read-out: Tumor Uptake): 2.45 ± 0.57 %ID/g
- tissue uptake at 1 h ([3]; tumor (BxPC-3 xenograft), non-PEGylated A20FMDV2 100 μg injected 10 min before radiotracer, read-out: Tumor uptake, 1 h Block): 0.75 ± 0.09 %ID/g
